Measured values published in US7947648 (AEROVANCE, dated 2011).

Experiments:
[1] = molecular target: T1, IL-4 receptor alpha chain (UniProt P24394 26-232, limits assumed); assay: Biacore assay, pre- and post-nebulized IL-4RA samples (Aeroneb Pro); no difference between them
T1 construct: also called IL-4Rα; IL-4 receptor α chain
T1 sequence (looked up): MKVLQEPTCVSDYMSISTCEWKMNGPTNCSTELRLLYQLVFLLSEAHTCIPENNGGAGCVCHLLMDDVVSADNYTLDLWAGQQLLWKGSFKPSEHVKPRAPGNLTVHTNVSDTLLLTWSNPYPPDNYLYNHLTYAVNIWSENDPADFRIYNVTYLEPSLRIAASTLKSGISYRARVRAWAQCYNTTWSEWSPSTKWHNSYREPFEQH

[2] = molecular target: T1, IL-4 receptor alpha chain; assay: Biacore (SPR), IL-4 receptor α chain immobilized
[3] = molecular target: T1, IL-4 receptor alpha chain; assay: cell-based or functional assay
[4] = molecular target: T1, IL-4 receptor alpha chain; assay: Biacore (SPR), IL-4 receptor α chain immobilized; n = 7

Kd [1]: ~0.1 nM
koff [2]: 0.0017 s⁻¹
kon [2]: 1.6e+07 M⁻¹ s⁻¹
EC50, inhibition of IL-4-induced cell proliferation (TF-1/IL-4 proliferation assay), pre and post nebulization (Aeroneb Pro) [3]: 0.2 to 0.3 nM
IC50, TF-1 proliferation assay, post nebulization (Pari LC Plus) [3]: 0.483 nM
IC50, TF-1 proliferation assay, pre nebulization (Pari LC Plus) [3]: 0.459 nM
Kd [4]: 0.14 nM
B1: IL-4RA (mutant human IL-4 protein with the R121D/Y124D pair of substitutions) (ligand)
chain: MHKCDITLQEIIKTLNSLTEQKTLCTELTVTDIFAASKNTTEKETFCRAATVLRQFYSHHEKDTRCLGATAQQFHRHKQLIRFLKRLDRNLWGLAGLNSCPVKEANQSTLENFLERLKTIMDEKDSKCSS
notes: The entry may carry an N-terminal methionine; also called mhIL-4; IL-4 mutein
